From the RNAGym collection of RNA variant scans (doi:10.1073/pnas.2313332121)
Variants at the floor of the assay were thinned out.

B1: TPR 5TU (parent)
chain: GGAUCUUCUCGAUCUAACAAAAAAGACAAAUCUGCCACAAAGCUUGAGAGCAUCUUCGGAUGCAGAGGCGGCAGCCUUCGGUGGCGCGAUAGCGCCAACGUUCUCAACUAUGACACGCAAAACGCGUGCUCCGUUGAAUGGAGUUUAUCAUG

Variants of: B1
Assay: polymerase ribozyme fitness, log enrichment relative to wild type (log ratio); higher = more active; in vitro selection for triplet polymerase activity
Outline: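 In triplicate, a single round of in vitro selection was run on each mutant library, PCR-built and transcribed, covering one subunit of a heterodimeric triplet polymerase ribozyme. Frozen incubation at −7 °C followed annealing with a biotinylated primer, partner subunit and triplets, and extended constructs were then gel-excised, streptavidin-captured and taken through RT-PCR. Fitness is the logarithm of genotype enrichment over wild-type enrichment, from inverse-variance-weighted replicate averages of Illumina-sequenced inputs and outputs. […] only genotypes with ≥10 input reads and ≥1 read per output were kept.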

| Variant | polymerase ribozyme fitness (log ratio) |
| --- | --- |
| GGAUCUUCUCGAUCUAACAAAAAAGACAAAUCUGCCACAAAGCUUGAGAGCAUCUUCGGAUGCAGAGGCGGCAGCCUUCGGGGGCGCGAUAGCGCCGGCGUUCUCAACUAUGACACGACAAACGCGUGCUCCGUUGAAUCGAGUUUAUCAUG | ≤ -4.2 |
| GGAUCUUCUCGAUCUAACAAAAAAGACAAAUCUGCCACAAAGCUUGAGAGCAUCUUCGGAUGCAGAGGCGGCAGCCUUCGGCGGCGCGAUAGCGCCAACGUUCGCAACUAUGACACUCAAAACGCGUGCUCCGUUGAAUGGAGUUUAUCAUG | 0.147 |
| GGAUCUUCUCGAUCUAACAAAAAAGACAAAUCUGCCACAAAGCUUGAGAGCAUCUUCGGAUGCAGAGGCGGCAGCCUUCGGUAGCGCGAUAGCGCCAACGUUCUCAACUAUGACACGCAAAACGCGUGCUCCGUUGAAUGGAGUUUAUCUUG | 0.356 |
| GGAUCUUCUCGAUCUAACAAAAAAGACAAAUCUGCCACAAAGCUUGAGAGCAUCUUCGGAUGCAGAGGCGGCAGCCUUCGGUAGCGCGAUAGCGCCAACGUUCUCAACUAUGACACGCAAAACGCGUGCUCCGUUGAAUGGAGUUUAUCCUG | -3.77 |
| GGAUCUUCUCGAUCUAACAAAAAAGACAAAUCUGCCACAAAGCUUGAGAGCAUCUUCGGAUGCAGAGGCGGCAGCCUUCGGUCGCGCGAUAGCGCCGACGUUCUCAAGUAUGACACGCAAAACGCGUGCUCCGUUGAAUGGAGUUUAUCAUG | ≤ -4.2 |
| GGAUCUUCUCGAUCUAACAAAAAAGACAAAUCUGCCACAAAGCUUGAGAGCAUCUUCGGAUGCAGAGGCGGCAGCCUUCGGUAGCGCGAUAGCGCCAACGUUCUCAACUAUGACACGCAAAACGCGUGCUCCGUCGAAUGGAGUUUAUCAUG | -2.09 |
| GGAUCUUCUCGAUCUAACAAAAAAGACAAAUCUGCCACAAAGCUUGAGAGCAUCUUCGGAUGCAGAGGCGGCAGCCUUCGGUAGCGCAAUGGCGCCAACGUUCUCAACUAUUACACGCAAAACGCGUGCUCCGUUGAAUUGACUUUAUCAUG | ≤ -4.2 |
| GGAUCUUCUCGAUCUAACAAAAAAGACAAAUCUGCCACAAAGCUUGAGAGCAUCUUCGGAUGCAGAGGCGGCAGCCUUCGGUAGCGCGAUAGCGCCAACGUUCUCAACUAUGACACGCAAAACGCGUGCUCCGAUGAAUGGAGUUUAUCAUG | -2.04 |
| GGAUCUUCUCGAUCUAACAAAAAAGACAAAUCUGCCACAAAGCUUGAGAGCAUCUUCGGAUGCAGAGGCGGCAGCCUUCGGUAGCGCGAUAGCGCCAACGUUCUCAACUAUGACACGCAAAACGAGUGCUCCGUUGAAUGGAGUUUAUCAUG | -0.344 |
| GGAUCUUCUCGAUCUAACAAAAAAGACAAAUCUGCCACAAAGCUUGAGAGCAUCUUCGGAUGCAGAGGCGGCAGCCUUCGGUAGCGCGAUAGCGCCAACGUUCUCGACUAUGACACGCCAAACGCGUGCUCCGUUGAAUGGAGUUUAUCAUG | -0.0979 |
| GGAUCUUCUCGAUCUAACAAAAAAGACAAAUCUGCCACAAAGCUUGAGAGCAUCUUCGGAUGCAGAGGCGGCAGCCUUCGGUAGCGCGAUAGCGCCAACGUUCUUAACUGUGACACGCAAAACGCGUGCUCCGCUGAAUGGAGUUUAUCAUG | -3.98 |
| GGAUCUUCUCGAUCUAACAAAAAAGACAAAUCUGCCACAAAGCUUGAGAGCAUCUUCGGAUGCAGAGGCGGCAGCCUUCGGUAGCGCGAUAGCGCCAACGUUCUCAACUAUGACACGCAAAACCCGUGCUCCGUUGAAUGGAGUUUAUCAUG | -2.64 |
| GGAUCUUCUCGAUCUAACAAAAAAGACAAAUCUGCCACAAAGCUUGAGAGCAUCUUCGGAUGCAGAGGCGGCAGCCUUCGGUAGCGCGAUAGCGACAACGUUCUCAACUAUGUCACGCAAAACGCGUGCUCCGUUGAAUGGAGUUUAUCAUG | -3.12 |
| GGAUCUUCUCGAUCUAACAAAAAAGACAAAUCUGCCACAAAGCUUGAGAGCAUCUUCGGAUGCAGAGGCGGCAGCCUUCGGGGGCGCGAUAGCGCCAACGUUCUCAACUAUGACACGCAAAACGCGUGCUCCGUUGAAUGGAAUUUAUCAUG | -0.245 |
| GGAUCUUCUCGAUCUAACAAAAAAGACAAAUCUGCCACAAAGCUUGAGAGCAUCUUCGGAUGCAGAGGCGGCAGCCUUCGGGGGCGCGAUUGCGCCAACGUUCUCAACUUUGACACACAAAACGCGUGCUCCGUUGAAUGGAGUUUAUCAUG | ≤ -4.2 |
| GGAUCUUCUCGAUCUAACAAAAAAGACAAAUCUGCCACAAAGCUUGAGAGCAUCUUCGGAUGCAGAGGCGGCAGCCUUCGGUAGCGCGAUAGCGCCAACGUUCUCAGCUAUGACACGCAAAACGCGUGCUCCGUUAAAUAGAGUUUAUCAUG | ≤ -4.2 |
| GGAUCUUCUCGAUCUAACAAAAAAGACAAAUCUGCCACAAAGCUUGAGAGCAUCUUCGGAUGCAGAGGCGGCAGCCUUCGGUAGCGCGAUAGCGCCAACGUUCGCAACUAUGACACGCAGAACGCGUGCUCCGUUGAAUGGAGUUUAUCAUG | -1.21 |
| GGAUCUUCUCGAUCUAACAAAAAAGACAAAUCUGCCACAAAGCUUGAGAGCAUCUUCGGAUGCAGAGGCGGCAGCCUUCGGGGCCGCGAUAGCGCCAACGUUCUCAACUAUGACACGCAAAACGCGUGCUCCGUUGAAUGGAGUUUAUCAUG | -4.06 |
| GGAUCUUCUCGAUCUAACAAAAAAGACAAAUCUGCCACAAAGCUUGAGAGCAUCUUCGGAUGCAGAGGCGGCAGCCUUCGGUCGCGCGAUAGCGCCAACGUUCUCACCUAUGACACGCAAAACGCGUGCUCCGUUGAAUGGAGUUUAUCAUG | ≤ -4.2 |
